{
  "source": "paper PMC11446282",
  "data": [
    {"tested_on": "PP2A-B55α", "test": "Single alanine mutational scan, YFP-tagged interactors immunoprecipitated from HeLa cells, Western blot", "format": "binding, human", "settings": "single alanine mutant of YFP-tagged CDCA4", "procedure": "(§1) Standard cloning techniques were used throughout. Point mutations were introduced by whole plasmid polymerase chain reaction (PCR). All constructs were fully sequenced. Synthetic DNA was purchased from GeneArt, Life Technologies and cloned into pcDNA5/FRT/TO (Invitrogen) expression vector containing YFP, resulting in the indicated YFP fusion proteins. These constructs were transiently transfected into HeLa cells 24 hours before harvesting cells. Cells were lysed in lysis buffer [50 mM tris-HCl (pH 7.5), 50 mM NaCl, 1 mM EDTA, 1 mM […], and 0.1% NP-40]. Complexes were immunoprecipitated at 4°C in lysis buffer with green fluorescent protein (GFP)–Trap (ChromoTek) and washed in lysis buffer. Precipitated protein complexes were washed three times in lysis buffer, eluted in 2× SDS sample buffer, and subjected to Western blotting or MS as indicated.", "units": {"Experimental % binding": "%"}, "values": [
      {"molecule": "CDCA4 K44: CDCA4, K44 to alanine (protein, UniProt Q9BXL8 1-241, looked up, variant K44A) Cell division …: MFARGLKRKCVGHEEDVEGALAGLKTVSSYSLQRQSLLDMSLVALQLCHMLVEPNLCRSVLIANTVRQIQEEMTQDGTWRTVAPQAAERAPLDRLVSTEILCRAAWGQEGAHPAPGLGDGHTQGPVSDLCPVTSAQAPRHLQSSAWEMDGPRENRGSFHKSLDQIFETLETKNPSCMEELFSDVDSPYYDLDTVLTGMMGGARPGPCEGLEGLAPATPGPSSSCKSDLGELDHVVEILVET", "Experimental % binding": 22},
      {"molecule": "CDCA4 P54: CDCA4, P54 to alanine (protein, UniProt Q9BXL8 1-241, looked up, variant P54A) Cell division …: MFARGLKRKCVGHEEDVEGALAGLKTVSSYSLQRQSLLDMSLVKLQLCHMLVEANLCRSVLIANTVRQIQEEMTQDGTWRTVAPQAAERAPLDRLVSTEILCRAAWGQEGAHPAPGLGDGHTQGPVSDLCPVTSAQAPRHLQSSAWEMDGPRENRGSFHKSLDQIFETLETKNPSCMEELFSDVDSPYYDLDTVLTGMMGGARPGPCEGLEGLAPATPGPSSSCKSDLGELDHVVEILVET", "Experimental % binding": 66},
      {"molecule": "CDCA4 L56: CDCA4, L56 to alanine (protein, UniProt Q9BXL8 1-241, looked up, variant L56A) Cell division …: MFARGLKRKCVGHEEDVEGALAGLKTVSSYSLQRQSLLDMSLVKLQLCHMLVEPNACRSVLIANTVRQIQEEMTQDGTWRTVAPQAAERAPLDRLVSTEILCRAAWGQEGAHPAPGLGDGHTQGPVSDLCPVTSAQAPRHLQSSAWEMDGPRENRGSFHKSLDQIFETLETKNPSCMEELFSDVDSPYYDLDTVLTGMMGGARPGPCEGLEGLAPATPGPSSSCKSDLGELDHVVEILVET", "Experimental % binding": 42},
      {"molecule": "CDCA4 V52: CDCA4, V52 to alanine (protein, UniProt Q9BXL8 1-241, looked up, variant V52A) Cell division …: MFARGLKRKCVGHEEDVEGALAGLKTVSSYSLQRQSLLDMSLVKLQLCHMLAEPNLCRSVLIANTVRQIQEEMTQDGTWRTVAPQAAERAPLDRLVSTEILCRAAWGQEGAHPAPGLGDGHTQGPVSDLCPVTSAQAPRHLQSSAWEMDGPRENRGSFHKSLDQIFETLETKNPSCMEELFSDVDSPYYDLDTVLTGMMGGARPGPCEGLEGLAPATPGPSSSCKSDLGELDHVVEILVET", "Experimental % binding": 82},
      {"molecule": "CDCA4 L45: CDCA4, L45 to alanine (protein, UniProt Q9BXL8 1-241, looked up, variant L45A) Cell division …: MFARGLKRKCVGHEEDVEGALAGLKTVSSYSLQRQSLLDMSLVKAQLCHMLVEPNLCRSVLIANTVRQIQEEMTQDGTWRTVAPQAAERAPLDRLVSTEILCRAAWGQEGAHPAPGLGDGHTQGPVSDLCPVTSAQAPRHLQSSAWEMDGPRENRGSFHKSLDQIFETLETKNPSCMEELFSDVDSPYYDLDTVLTGMMGGARPGPCEGLEGLAPATPGPSSSCKSDLGELDHVVEILVET", "Experimental % binding": 86},
      {"molecule": "CDCA4 Q46: CDCA4, Q46 to alanine (protein, UniProt Q9BXL8 1-241, looked up, variant Q46A) Cell division …: MFARGLKRKCVGHEEDVEGALAGLKTVSSYSLQRQSLLDMSLVKLALCHMLVEPNLCRSVLIANTVRQIQEEMTQDGTWRTVAPQAAERAPLDRLVSTEILCRAAWGQEGAHPAPGLGDGHTQGPVSDLCPVTSAQAPRHLQSSAWEMDGPRENRGSFHKSLDQIFETLETKNPSCMEELFSDVDSPYYDLDTVLTGMMGGARPGPCEGLEGLAPATPGPSSSCKSDLGELDHVVEILVET", "Experimental % binding": 61},
      {"molecule": "CDCA4 E53: CDCA4, E53 to alanine (protein, UniProt Q9BXL8 1-241, looked up, variant E53A) Cell division …: MFARGLKRKCVGHEEDVEGALAGLKTVSSYSLQRQSLLDMSLVKLQLCHMLVAPNLCRSVLIANTVRQIQEEMTQDGTWRTVAPQAAERAPLDRLVSTEILCRAAWGQEGAHPAPGLGDGHTQGPVSDLCPVTSAQAPRHLQSSAWEMDGPRENRGSFHKSLDQIFETLETKNPSCMEELFSDVDSPYYDLDTVLTGMMGGARPGPCEGLEGLAPATPGPSSSCKSDLGELDHVVEILVET", "Experimental % binding": 153},
      {"molecule": "CDCA4 C57: CDCA4, C57 to alanine (protein, UniProt Q9BXL8 1-241, looked up, variant C57A) Cell division …: MFARGLKRKCVGHEEDVEGALAGLKTVSSYSLQRQSLLDMSLVKLQLCHMLVEPNLARSVLIANTVRQIQEEMTQDGTWRTVAPQAAERAPLDRLVSTEILCRAAWGQEGAHPAPGLGDGHTQGPVSDLCPVTSAQAPRHLQSSAWEMDGPRENRGSFHKSLDQIFETLETKNPSCMEELFSDVDSPYYDLDTVLTGMMGGARPGPCEGLEGLAPATPGPSSSCKSDLGELDHVVEILVET", "Experimental % binding": 91},
      {"molecule": "CDCA4 N55: CDCA4, N55 to alanine (protein, UniProt Q9BXL8 1-241, looked up, variant N55A) Cell division …: MFARGLKRKCVGHEEDVEGALAGLKTVSSYSLQRQSLLDMSLVKLQLCHMLVEPALCRSVLIANTVRQIQEEMTQDGTWRTVAPQAAERAPLDRLVSTEILCRAAWGQEGAHPAPGLGDGHTQGPVSDLCPVTSAQAPRHLQSSAWEMDGPRENRGSFHKSLDQIFETLETKNPSCMEELFSDVDSPYYDLDTVLTGMMGGARPGPCEGLEGLAPATPGPSSSCKSDLGELDHVVEILVET", "Experimental % binding": 99}
    ]},
    {"tested_on": "PP2A-B55α", "test": "Single alanine mutational scan, YFP-tagged interactors immunoprecipitated from HeLa cells, Western blot", "format": "binding, human", "settings": "single alanine mutant of YFP-tagged RBM7", "procedure": "as §1", "units": {"Experimental % binding": "%"}, "values": [
      {"molecule": "RBM7 Q153: RBM7, Q153 to alanine (protein, UniProt Q9Y580 2-266, looked up, variant Q153A) RNA-binding protein 7: GAAAAEADRTLFVGNLETKVTEELLFELFHQAGPVIKVKIPKDKDGKPKQFAFVNFKHEVSVPYAMNLLNGIKLYGRPIKIQFRSGSSHAPQDVSLSYPQHHVGNSSPTSTSPSRYERTMDNMTSSAQIIQRSFSSPENFQRQAVMNSALRAMSYGGKFGSSPLDQSGFSPSVQSHSHSFNQSSSSQWRQGTPSSQRKVRMNSYPYLADRHYSREQRYTDHGSDHHYRGKRDDFFYEDRNHDDWSHDYDNRRDSSRDGKWRSSRH", "Experimental % binding": 131},
      {"molecule": "RBM7 V146: RBM7, V146 to alanine (protein, UniProt Q9Y580 2-266, looked up, variant V146A) RNA-binding protein 7: GAAAAEADRTLFVGNLETKVTEELLFELFHQAGPVIKVKIPKDKDGKPKQFAFVNFKHEVSVPYAMNLLNGIKLYGRPIKIQFRSGSSHAPQDVSLSYPQHHVGNSSPTSTSPSRYERTMDNMTSSAQIIQRSFSSPENFQRQAAMNSALRQMSYGGKFGSSPLDQSGFSPSVQSHSHSFNQSSSSQWRQGTPSSQRKVRMNSYPYLADRHYSREQRYTDHGSDHHYRGKRDDFFYEDRNHDDWSHDYDNRRDSSRDGKWRSSRH", "Experimental % binding": 7},
      {"molecule": "RBM7 F141: RBM7, F141 to alanine (protein, UniProt Q9Y580 2-266, looked up, variant F141A) RNA-binding protein 7: GAAAAEADRTLFVGNLETKVTEELLFELFHQAGPVIKVKIPKDKDGKPKQFAFVNFKHEVSVPYAMNLLNGIKLYGRPIKIQFRSGSSHAPQDVSLSYPQHHVGNSSPTSTSPSRYERTMDNMTSSAQIIQRSFSSPENAQRQAVMNSALRQMSYGGKFGSSPLDQSGFSPSVQSHSHSFNQSSSSQWRQGTPSSQRKVRMNSYPYLADRHYSREQRYTDHGSDHHYRGKRDDFFYEDRNHDDWSHDYDNRRDSSRDGKWRSSRH", "Experimental % binding": 4},
      {"molecule": "RBM7 R143: RBM7, R143 to alanine (protein, UniProt Q9Y580 2-266, looked up, variant R143A) RNA-binding protein 7: GAAAAEADRTLFVGNLETKVTEELLFELFHQAGPVIKVKIPKDKDGKPKQFAFVNFKHEVSVPYAMNLLNGIKLYGRPIKIQFRSGSSHAPQDVSLSYPQHHVGNSSPTSTSPSRYERTMDNMTSSAQIIQRSFSSPENFQAQAVMNSALRQMSYGGKFGSSPLDQSGFSPSVQSHSHSFNQSSSSQWRQGTPSSQRKVRMNSYPYLADRHYSREQRYTDHGSDHHYRGKRDDFFYEDRNHDDWSHDYDNRRDSSRDGKWRSSRH", "Experimental % binding": 5},
      {"molecule": "RBM7 Q142: RBM7, Q142 to alanine (protein, UniProt Q9Y580 2-266, looked up, variant Q142A) RNA-binding protein 7: GAAAAEADRTLFVGNLETKVTEELLFELFHQAGPVIKVKIPKDKDGKPKQFAFVNFKHEVSVPYAMNLLNGIKLYGRPIKIQFRSGSSHAPQDVSLSYPQHHVGNSSPTSTSPSRYERTMDNMTSSAQIIQRSFSSPENFARQAVMNSALRQMSYGGKFGSSPLDQSGFSPSVQSHSHSFNQSSSSQWRQGTPSSQRKVRMNSYPYLADRHYSREQRYTDHGSDHHYRGKRDDFFYEDRNHDDWSHDYDNRRDSSRDGKWRSSRH", "Experimental % binding": 67},
      {"molecule": "RBM7 P138: RBM7, P138 to alanine (protein, UniProt Q9Y580 2-266, looked up, variant P138A) RNA-binding protein 7: GAAAAEADRTLFVGNLETKVTEELLFELFHQAGPVIKVKIPKDKDGKPKQFAFVNFKHEVSVPYAMNLLNGIKLYGRPIKIQFRSGSSHAPQDVSLSYPQHHVGNSSPTSTSPSRYERTMDNMTSSAQIIQRSFSSAENFQRQAVMNSALRQMSYGGKFGSSPLDQSGFSPSVQSHSHSFNQSSSSQWRQGTPSSQRKVRMNSYPYLADRHYSREQRYTDHGSDHHYRGKRDDFFYEDRNHDDWSHDYDNRRDSSRDGKWRSSRH", "Experimental % binding": 92},
      {"molecule": "RBM7 N140: RBM7, N140 to alanine (protein, UniProt Q9Y580 2-266, looked up, variant N140A) RNA-binding protein 7: GAAAAEADRTLFVGNLETKVTEELLFELFHQAGPVIKVKIPKDKDGKPKQFAFVNFKHEVSVPYAMNLLNGIKLYGRPIKIQFRSGSSHAPQDVSLSYPQHHVGNSSPTSTSPSRYERTMDNMTSSAQIIQRSFSSPEAFQRQAVMNSALRQMSYGGKFGSSPLDQSGFSPSVQSHSHSFNQSSSSQWRQGTPSSQRKVRMNSYPYLADRHYSREQRYTDHGSDHHYRGKRDDFFYEDRNHDDWSHDYDNRRDSSRDGKWRSSRH", "Experimental % binding": 5},
      {"molecule": "RBM7 E139: RBM7, E139 to alanine (protein, UniProt Q9Y580 2-266, looked up, variant E139A) RNA-binding protein 7: GAAAAEADRTLFVGNLETKVTEELLFELFHQAGPVIKVKIPKDKDGKPKQFAFVNFKHEVSVPYAMNLLNGIKLYGRPIKIQFRSGSSHAPQDVSLSYPQHHVGNSSPTSTSPSRYERTMDNMTSSAQIIQRSFSSPANFQRQAVMNSALRQMSYGGKFGSSPLDQSGFSPSVQSHSHSFNQSSSSQWRQGTPSSQRKVRMNSYPYLADRHYSREQRYTDHGSDHHYRGKRDDFFYEDRNHDDWSHDYDNRRDSSRDGKWRSSRH", "Experimental % binding": 77}
    ]}
  ]
}
